Series [1] concerns the molecule itself. The series is described as follows: crystal structure; PSPC1 aa61–320 homodimer; one dimer in the asymmetric unit; 3.17 Å; hanging drop, 100 mM malic acid pH 7.0, 28% PEG 3350, 100 mM Tris pH 7.0.
Series [2] concerns the molecule itself. The experiment in a line: crystal structure; NONO aa53–312 homodimer; six dimers (12 monomers) in the asymmetric unit; 2.60 Å; crystallization and phasing described in ref. 38.

B1: PSPC1-DBHS (paraspeckle protein component 1, aa61–320) (domain or fragment, human, UniProt Q8WXF1 61-320, looked up)
chain: MGFTIDIKSFLKPGEKTYTQRCRLFVGNLPTDITEEDFKRLFERYGEPSEVFINRDRGFGFIRLESRTLAEIAKAELDGTILKSRPLRIRFATHGAALTVKNLSPVVSNELLEQAFSQFGPVEKAVVVVDDRGRATGKGFVEFAAKPPARKALERCGDGAFLLTTTPRPVIVEPMEQFDDEDGLPEKLMQKTQQYHKEREQPPRFAQPGTFEFEYASRWKALDEMEKQQREQVDRNIREAKEKLEAEMEAARHEHQLMLM
notes: human PSPC1, conserved DBHS region, aa61–320 relative to UniProt entry PSPC1_HUMAN; also called PSPC1 homodimer; PSPC1 (aa61–320); source: E. coli Rosetta2 (DE3), purified (Ni Hi-Trap, TEV digestion, reverse Hi-Trap, Superdex 200)
For the protein B1, the binding result in series [1] is reported as “binds”.

B2: NONO-DBHS (non-POU domain-containing octamer-binding protein, aa53–312) (domain or fragment, human, UniProt Q15233 53-312, looked up)
chain: EGLTIDLKNFRKPGEKTFTQRSRLFVGNLPPDITEEEMRKLFEKYGKAGEVFIHKDKGFGFIRLETRTLAEIAKVELDNMPLRGKQLRVRFACHSASLTVRNLPQYVSNELLEEAFSVFGQVERAVVIVDDRGRPSGKGIVEFSGKPAARKALDRCSEGSFLLTTFPRPVTVEPMDQLDDEEGLPEKLVIKNQQFHKEREQPPRFAQPGSFEYEYAMRWKALIEMEKQQQDQVDRNIKEAREKLEMEMEAARHEHQVMLM
notes: Cloned into the first expression cassette of pET-Duet1; also called NONO homodimer; P54nrb; not shown: His6, N-terminal, cleaved
Turning to B2, the binding result in series [2] was “binds”.

The record behind these values is PMC8754649, “Structural basis of dimerization and nucleic acid binding of human DBHS proteins NONO and PSPC1” (Nucleic Acids Research, 2021).
